The values below come from the Human Domainome abundance scans (Beltran et al. 2025).

± gives the uncertainty stated by the source.

B1: Peripheral plasma membrane protein CASK, residues 488 to 569; numbered along this chain, O14936 (parent)
chain: VRLVQFQKNTDEPMGITLKMNELNHCIVARIMHGGMIHRQGTLHVGDEIREINGISVANQTVEQLQKMLREMRGSITFKIVP

In this series the parent is B1. The series is described as follows: abundance fitness (aPCA) (normalised: wild type 0, dead -1); higher = more abundant; growth selection in yeast, the domain comes from the species named. Conditions: Homo sapiens.
On to VRLVQFQKNTDEPMCITLKMNELNHCIVARIMHGGMIHRQGTLHVGDEIREINGISVANQTVEQLQKMLREMRGSITFKIVP [G15C], for which the abundance fitness was -0.556 ± 0.045. To VRLVQFQKNTDEPMGITLAMNELNHCIVARIMHGGMIHRQGTLHVGDEIREINGISVANQTVEQLQKMLREMRGSITFKIVP [K19A] belongs 0.022 ± 0.026; to VRLVQYQKNTDEPMGITLKMNELNHCIVARIMHGGMIHRQGTLHVGDEIREINGISVANQTVEQLQKMLREMRGSITFKIVP [F6Y], -0.095 ± 0.035; to VRLVQHQKNTDEPMGITLKMNELNHCIVARIMHGGMIHRQGTLHVGDEIREINGISVANQTVEQLQKMLREMRGSITFKIVP [F6H], -0.181 ± 0.053.

With VRLVQIQKNTDEPMGITLKMNELNHCIVARIMHGGMIHRQGTLHVGDEIREINGISVANQTVEQLQKMLREMRGSITFKIVP [F6I], the abundance fitness is -0.028 ± 0.04. With VRLVQFQKNTDEPMGITLKMNELNHCIVARIMHGGMIHRQGTLNVGDEIREINGISVANQTVEQLQKMLREMRGSITFKIVP [H44N], the abundance fitness was -0.029 ± 0.037. To VRLVQFQKNTDEPMGITLKMNELNHCIVARIMHGGMIHRQGTLHVGDEIREINGISVANQTVEQLYKMLREMRGSITFKIVP [Q66Y] belongs -0.038 ± 0.051. To VRLVQFQKNTDEPMGITLKFNELNHCIVARIMHGGMIHRQGTLHVGDEIREINGISVANQTVEQLQKMLREMRGSITFKIVP [M20F] belongs 0.026 ± 0.059. To VRLVQFQKNTDEPMGITLKKNELNHCIVARIMHGGMIHRQGTLHVGDEIREINGISVANQTVEQLQKMLREMRGSITFKIVP [M20K] belongs 0.034 ± 0.029; to VRLVQFQKNTDEPMGITLKMNELNHCIVARIMHGGMIHRQGTLHVGDEIREINGISVANQTVEQLQKMLMEMRGSITFKIVP [R70M], -0.019 ± 0.031; to VRLVQFQKNTDEPMGITLKMNELNHCIVARIMHGGMIHRQGTLHVGDEIREINGISVANQTVEQLQKMLLEMRGSITFKIVP [R70L], 0 ± 0.024.

With VRLVQFQKNTDEPMGITLKMNRLNHCIVARIMHGGMIHRQGTLHVGDEIREINGISVANQTVEQLQKMLREMRGSITFKIVP [E22R], the abundance fitness turned out to be 0.001 ± 0.025. Regarding VRLVQFQKNTDEPMGITLKMEELNHCIVARIMHGGMIHRQGTLHVGDEIREINGISVANQTVEQLQKMLREMRGSITFKIVP [N21E], the abundance fitness was -0.136 ± 0.032. The result for VRLVQFQKNTDEPMGITLKMIELNHCIVARIMHGGMIHRQGTLHVGDEIREINGISVANQTVEQLQKMLREMRGSITFKIVP [N21I] reads -0.201 ± 0.041; that for VRLAQFQKNTDEPMGITLKMNELNHCIVARIMHGGMIHRQGTLHVGDEIREINGISVANQTVEQLQKMLREMRGSITFKIVP [V4A], -0.199 ± 0.027; that for VRLVQFQKNTDEPMGITLKMNELNHCIVARIMHGGMIHRQGTLHVGDEIREINGISVARQTVEQLQKMLREMRGSITFKIVP [N59R], -0.09 ± 0.023. The result for VRLVQFQKNTDEPMGITLKMNELNHCIVARIMHGGMIHRQGTLHVGDEIREINGISVANQTREQLQKMLREMRGSITFKIVP [V62R] reads -0.1 ± 0.02.

For the variant VRLVQFQKNTDEPMGITLKMNELNHCIVARIMHGGMIHRQGTLHVGDEIREINGISVANQTDEQLQKMLREMRGSITFKIVP [V62D], the abundance fitness was -0.031 ± 0.031. To VRLVQFQKNTDEPMGITLKMNELNHCIVARIMHGGMIHRQGTLHVGDEIREINGISVANQTGEQLQKMLREMRGSITFKIVP [V62G] belongs -0.067 ± 0.019; to VRLVQFQKNTDEPMGITLKMNELNHCIVARIMHGGMIHRQGTLHVGDEIREIWGISVANQTVEQLQKMLREMRGSITFKIVP [N53W], -0.972 ± 0.17. To VRLVQFQKNTDEPMGITLKMNELNHCIVARIMHGGMIHRQGTLHVGDEIREINGISVANQTVEQLQKMLREMRGPITFKIVP [S75P] belongs -0.005 ± 0.048; to VRLVQFQKNTDEPMGITLKMNELNHCIVARIMHGGMIHRQGCLHVGDEIREINGISVANQTVEQLQKMLREMRGSITFKIVP [T42C], -0.025 ± 0.031; to VRLVQFQKNTDEPMGITLKMNELNHCIVARIMHGGMIHRQGTLHVGDEIREINGISVANQTVEQLQYMLREMRGSITFKIVP [K67Y], -0.064 ± 0.047.

For the variant VRLVQFQKNTDEPMGITLKMNELNHCIVARIMHGGMIHRQGTLHVGDEIREINGISVANQCVEQLQKMLREMRGSITFKIVP [T61C], the abundance fitness was -0.129 ± 0.031. To VRLVQFQKNTDEPMGITLKMNELNHCIVARIMHGGMIHRQGTLHVGDEIREINGISVANQLVEQLQKMLREMRGSITFKIVP [T61L] belongs -0.41 ± 0.029; to VRLVQFQKNTDEPMGITLKMNELNHCIVARIMHGGMIHRQGTLHVGDEIREINGISVANQTVEQLQKMLREMRGSITFKIVR [P82R], -0.063 ± 0.044; to VRLVQFWKNTDEPMGITLKMNELNHCIVARIMHGGMIHRQGTLHVGDEIREINGISVANQTVEQLQKMLREMRGSITFKIVP [Q7W], -0.037 ± 0.025.

Turning to VRLVQFCKNTDEPMGITLKMNELNHCIVARIMHGGMIHRQGTLHVGDEIREINGISVANQTVEQLQKMLREMRGSITFKIVP [Q7C], the abundance fitness turned out to be 0.021 ± 0.035.

VRLVQFTKNTDEPMGITLKMNELNHCIVARIMHGGMIHRQGTLHVGDEIREINGISVANQTVEQLQKMLREMRGSITFKIVP [Q7T]: the abundance fitness turned out to be 0.041 ± 0.03. The result for VRLVQFVKNTDEPMGITLKMNELNHCIVARIMHGGMIHRQGTLHVGDEIREINGISVANQTVEQLQKMLREMRGSITFKIVP [Q7V] reads 0.001 ± 0.022.

Consider VRLVQFQKNTDEPMGITLKMNELNHCIVARIMHGGMIHRQGTLHFGDEIREINGISVANQTVEQLQKMLREMRGSITFKIVP [V45F], for which the abundance fitness was -0.457 ± 0.14. The result for VRLVQFQKNTDEPMGITLKMNELNHCIVARIMHGGMIHRQGTLHVGDEIREINGISVANQTVEQLQKMLRYMRGSITFKIVP [E71Y] reads 0.017 ± 0.051.

Take VRLVQFQKNTDEPMGITLKMNELNHCIVARIMHGGMIHRQGTLHVGDEIREINGISVANQTVEQLQKMLRHMRGSITFKIVP [E71H]: the abundance fitness was -0.002 ± 0.048.
